From patent publication US7795009 come the findings set out here.

This series relates to prothrombin.

For Factor Xa, the “sensitized acceptor emission of the thrombin beacon as a function of time” value is “This conversion resulted in a time-dependent increase of beacon signal”.
